Experimental data from PMC5916898, “Global profiling of protein–DNA and protein–nucleosome binding affinities using quantitative mass spectrometry”.

T1: BBX (Homo sapiens, UniProt Q8WY36)
T1 sequence: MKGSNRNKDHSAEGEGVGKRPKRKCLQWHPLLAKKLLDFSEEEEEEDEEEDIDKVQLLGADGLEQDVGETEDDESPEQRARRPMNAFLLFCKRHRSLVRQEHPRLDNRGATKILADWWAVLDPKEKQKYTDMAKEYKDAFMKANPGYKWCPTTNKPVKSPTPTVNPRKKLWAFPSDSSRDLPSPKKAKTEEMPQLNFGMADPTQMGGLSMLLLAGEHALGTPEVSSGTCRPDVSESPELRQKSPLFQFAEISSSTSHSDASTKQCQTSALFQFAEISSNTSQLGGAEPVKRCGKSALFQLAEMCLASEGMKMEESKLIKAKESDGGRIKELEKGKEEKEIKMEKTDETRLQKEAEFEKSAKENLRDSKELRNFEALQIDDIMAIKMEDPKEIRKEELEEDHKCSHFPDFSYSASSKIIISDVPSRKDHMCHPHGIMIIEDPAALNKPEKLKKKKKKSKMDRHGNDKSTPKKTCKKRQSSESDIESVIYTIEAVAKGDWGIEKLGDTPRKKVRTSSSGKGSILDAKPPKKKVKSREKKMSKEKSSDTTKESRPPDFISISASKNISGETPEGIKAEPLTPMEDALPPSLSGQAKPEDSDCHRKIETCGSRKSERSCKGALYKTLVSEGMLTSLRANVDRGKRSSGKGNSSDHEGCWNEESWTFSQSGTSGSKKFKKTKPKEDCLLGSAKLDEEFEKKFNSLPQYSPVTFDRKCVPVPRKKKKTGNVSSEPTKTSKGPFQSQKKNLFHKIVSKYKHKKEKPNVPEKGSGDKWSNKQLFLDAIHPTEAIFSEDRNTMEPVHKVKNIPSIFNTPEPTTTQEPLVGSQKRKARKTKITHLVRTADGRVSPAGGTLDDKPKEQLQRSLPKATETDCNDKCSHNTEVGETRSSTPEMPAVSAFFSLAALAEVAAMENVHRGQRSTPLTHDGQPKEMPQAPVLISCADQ

T2: FOXL2 (Homo sapiens, UniProt P58012)
T2 sequence: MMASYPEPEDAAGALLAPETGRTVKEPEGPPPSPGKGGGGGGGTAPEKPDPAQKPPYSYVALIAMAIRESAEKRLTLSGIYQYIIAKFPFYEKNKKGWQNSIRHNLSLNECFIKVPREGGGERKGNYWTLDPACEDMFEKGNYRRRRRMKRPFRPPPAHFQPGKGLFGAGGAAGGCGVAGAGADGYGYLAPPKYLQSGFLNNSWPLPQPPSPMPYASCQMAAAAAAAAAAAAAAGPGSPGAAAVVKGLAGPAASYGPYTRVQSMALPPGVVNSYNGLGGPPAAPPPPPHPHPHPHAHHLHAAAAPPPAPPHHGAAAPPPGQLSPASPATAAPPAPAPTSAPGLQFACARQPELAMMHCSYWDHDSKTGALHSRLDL

B1: CTCF (dsDNA)
DNA 1: TCAGAGTGGCGGCCAGCAGGGGGCGCCCTTGCCAGA
DNA 2: TCTGGCAAGGGCGCCCCCTGCTGGCCGCCACTCTGA
B2: TATA-box (dsDNA)
DNA 1: GCGGCGCTCTATATAAGTGGGCAGTG
DNA 2: CACTGCCCACTTATATAGAGCGCCGC
B3: TEAD (dsDNA)
DNA 1: TCGGGACCCAGGCCTGGAATGTTTCCACC
DNA 2: GGTGGAAACATTCCAGGCCTGGGTCCCGA
B4: SP/KLF wild-type (dsDNA)
DNA 1: GAGAGCCCCGCCCCCTGGCT
DNA 2: AGCCAGGGGGCGGGGCTCTC

Key:
Assay in all cases: pulldown; 150 mM NaCl, 50 mM Tris pH 8, 0.25% NP-40, 1 mM TCEP; 4 C, 2 h; 100 ug HeLa nuclear lysate
Settings in all cases: protein: extract; label: 5' biotin (strand 1)
[1] = target: ZBTB7B (Homo sapiens, UniProt O15156)
Chain of ZBTB7B (O15156 whole entry): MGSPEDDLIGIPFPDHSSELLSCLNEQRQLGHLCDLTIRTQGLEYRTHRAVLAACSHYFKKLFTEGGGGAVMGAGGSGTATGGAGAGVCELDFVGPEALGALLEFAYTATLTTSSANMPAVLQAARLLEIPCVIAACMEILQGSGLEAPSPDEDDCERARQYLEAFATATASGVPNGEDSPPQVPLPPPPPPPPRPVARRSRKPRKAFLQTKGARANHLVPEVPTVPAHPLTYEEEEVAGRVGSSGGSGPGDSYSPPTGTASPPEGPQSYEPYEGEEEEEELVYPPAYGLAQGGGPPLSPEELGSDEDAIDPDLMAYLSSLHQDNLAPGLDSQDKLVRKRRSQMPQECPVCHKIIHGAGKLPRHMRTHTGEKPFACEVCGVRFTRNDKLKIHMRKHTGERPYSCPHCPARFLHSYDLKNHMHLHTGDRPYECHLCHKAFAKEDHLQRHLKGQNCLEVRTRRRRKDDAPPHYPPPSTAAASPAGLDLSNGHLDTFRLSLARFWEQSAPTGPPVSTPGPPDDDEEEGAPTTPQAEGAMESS

[2] = target: SP3 (Homo sapiens, UniProt Q02447)
Chain of SP3 (Q02447 whole entry): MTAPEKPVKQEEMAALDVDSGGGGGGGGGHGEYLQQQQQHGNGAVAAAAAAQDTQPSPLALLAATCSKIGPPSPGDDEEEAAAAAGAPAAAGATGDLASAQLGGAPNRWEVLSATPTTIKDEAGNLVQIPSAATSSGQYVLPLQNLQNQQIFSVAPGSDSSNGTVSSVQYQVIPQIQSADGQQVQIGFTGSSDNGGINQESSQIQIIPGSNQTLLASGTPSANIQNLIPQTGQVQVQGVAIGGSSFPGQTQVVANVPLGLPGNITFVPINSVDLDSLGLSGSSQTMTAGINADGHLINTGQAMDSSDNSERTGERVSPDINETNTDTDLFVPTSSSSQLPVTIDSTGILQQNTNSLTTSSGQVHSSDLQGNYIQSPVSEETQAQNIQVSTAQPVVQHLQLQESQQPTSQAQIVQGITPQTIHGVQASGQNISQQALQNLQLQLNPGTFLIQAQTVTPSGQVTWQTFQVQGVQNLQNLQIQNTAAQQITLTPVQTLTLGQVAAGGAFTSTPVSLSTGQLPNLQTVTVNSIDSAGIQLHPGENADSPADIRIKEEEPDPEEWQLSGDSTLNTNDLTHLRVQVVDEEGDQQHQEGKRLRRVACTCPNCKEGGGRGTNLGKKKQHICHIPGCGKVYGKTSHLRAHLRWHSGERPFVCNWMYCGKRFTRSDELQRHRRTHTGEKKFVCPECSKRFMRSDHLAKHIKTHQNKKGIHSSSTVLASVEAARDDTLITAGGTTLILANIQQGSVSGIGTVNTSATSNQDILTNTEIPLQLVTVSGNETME

[3] = target: T1, BBX
[4] = target: KLF3 (Homo sapiens, UniProt P57682)
Chain of KLF3 (P57682 whole entry): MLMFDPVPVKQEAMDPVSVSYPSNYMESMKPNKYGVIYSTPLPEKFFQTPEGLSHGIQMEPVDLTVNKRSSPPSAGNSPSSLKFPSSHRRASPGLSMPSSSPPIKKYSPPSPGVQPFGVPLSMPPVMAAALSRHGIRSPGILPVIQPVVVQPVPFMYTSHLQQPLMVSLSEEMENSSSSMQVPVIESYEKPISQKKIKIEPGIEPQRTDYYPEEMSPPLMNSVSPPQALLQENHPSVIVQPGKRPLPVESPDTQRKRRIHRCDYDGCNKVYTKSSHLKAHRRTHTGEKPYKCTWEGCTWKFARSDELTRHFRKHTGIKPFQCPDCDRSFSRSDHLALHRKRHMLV

[5] = target: RBPJ (Homo sapiens, UniProt Q06330)
Chain of RBPJ (Q06330 whole entry): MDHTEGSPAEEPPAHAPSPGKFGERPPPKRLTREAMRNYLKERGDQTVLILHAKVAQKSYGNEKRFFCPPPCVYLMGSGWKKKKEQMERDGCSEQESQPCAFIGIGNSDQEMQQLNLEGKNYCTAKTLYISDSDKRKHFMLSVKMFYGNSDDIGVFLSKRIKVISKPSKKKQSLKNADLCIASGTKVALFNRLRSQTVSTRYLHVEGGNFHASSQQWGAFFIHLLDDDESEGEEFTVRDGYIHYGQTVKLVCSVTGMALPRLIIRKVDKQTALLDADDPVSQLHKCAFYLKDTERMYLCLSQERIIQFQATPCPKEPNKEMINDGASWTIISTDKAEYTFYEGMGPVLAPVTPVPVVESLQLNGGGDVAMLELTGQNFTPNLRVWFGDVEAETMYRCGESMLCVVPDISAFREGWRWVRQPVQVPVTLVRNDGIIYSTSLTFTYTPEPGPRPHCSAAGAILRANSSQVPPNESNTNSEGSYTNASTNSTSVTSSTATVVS

[6] = target: KLF10 (Homo sapiens, UniProt Q13118)
Chain of KLF10 (Q13118 whole entry): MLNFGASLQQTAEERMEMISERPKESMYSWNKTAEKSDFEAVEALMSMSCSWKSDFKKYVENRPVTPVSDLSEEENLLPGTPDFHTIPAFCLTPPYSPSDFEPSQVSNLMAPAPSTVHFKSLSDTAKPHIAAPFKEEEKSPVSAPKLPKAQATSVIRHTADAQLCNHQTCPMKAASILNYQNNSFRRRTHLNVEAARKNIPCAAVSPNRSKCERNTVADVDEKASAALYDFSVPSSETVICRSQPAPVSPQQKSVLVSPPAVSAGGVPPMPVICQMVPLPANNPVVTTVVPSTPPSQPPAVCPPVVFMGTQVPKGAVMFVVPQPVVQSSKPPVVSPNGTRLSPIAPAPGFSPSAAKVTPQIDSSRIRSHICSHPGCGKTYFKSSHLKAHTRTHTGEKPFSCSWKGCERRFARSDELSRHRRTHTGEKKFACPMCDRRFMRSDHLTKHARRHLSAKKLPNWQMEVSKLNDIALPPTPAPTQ

[7] = target: NFIA (Homo sapiens, UniProt Q12857)
Chain of NFIA (Q12857 whole entry): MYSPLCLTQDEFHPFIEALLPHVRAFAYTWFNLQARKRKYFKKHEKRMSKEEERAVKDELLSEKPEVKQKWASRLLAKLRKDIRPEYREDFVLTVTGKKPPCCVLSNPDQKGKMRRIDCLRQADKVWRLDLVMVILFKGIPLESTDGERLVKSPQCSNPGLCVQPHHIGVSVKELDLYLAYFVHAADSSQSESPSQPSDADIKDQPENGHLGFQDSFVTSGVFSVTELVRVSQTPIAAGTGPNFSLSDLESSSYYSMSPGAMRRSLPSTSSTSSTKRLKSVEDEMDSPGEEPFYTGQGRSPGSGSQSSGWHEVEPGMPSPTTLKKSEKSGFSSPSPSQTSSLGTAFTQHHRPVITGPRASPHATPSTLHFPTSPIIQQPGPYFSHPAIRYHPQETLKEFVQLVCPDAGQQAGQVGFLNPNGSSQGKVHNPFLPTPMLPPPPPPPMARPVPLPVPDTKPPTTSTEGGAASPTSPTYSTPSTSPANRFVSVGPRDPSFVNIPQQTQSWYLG

[8] = target: T2, FOXL2

Binder	apparent K (half saturation) [1] [nM]	apparent K (half saturation) [2] [nM]	apparent K (half saturation) [3] [nM]	apparent K (half saturation) [4] [nM]	apparent K (half saturation) [5] [nM]	apparent K (half saturation) [6] [nM]	apparent K (half saturation) [7] [nM]	apparent K (half saturation) [8] [nM]
B1	39.2	72	308	124	376	41.2	72.8	
B2	230		405			84.5		140
B3			390		208		119	140
B4		19.3		61.9				
